The numbers were not newly measured in article PMC12851578, which cites them from elsewhere.

The data set addresses F-actin (Oryctolagus cuniculus) (UniProt P68135). Particulars: cited from earlier work.

For LifeAct (from UniProt Q08641), the Kd is 2200 nM.
